# Data reported in US20230312739A1 (BIOTHEUS, published 2023).
# T1: human CD73 on the cell surface (tumor cells endogenously expressing human CD73; CHOS-human CD73) (human, UniProt P21589 27-549)
# T1 construct: The endogenous CD73 of the human tumor lines (MDA-MB-231, Calu6, SK-ME-S, H2030, SKLU1, BT549, A375, HCC44) is treated as the same protein
# T1 sequence: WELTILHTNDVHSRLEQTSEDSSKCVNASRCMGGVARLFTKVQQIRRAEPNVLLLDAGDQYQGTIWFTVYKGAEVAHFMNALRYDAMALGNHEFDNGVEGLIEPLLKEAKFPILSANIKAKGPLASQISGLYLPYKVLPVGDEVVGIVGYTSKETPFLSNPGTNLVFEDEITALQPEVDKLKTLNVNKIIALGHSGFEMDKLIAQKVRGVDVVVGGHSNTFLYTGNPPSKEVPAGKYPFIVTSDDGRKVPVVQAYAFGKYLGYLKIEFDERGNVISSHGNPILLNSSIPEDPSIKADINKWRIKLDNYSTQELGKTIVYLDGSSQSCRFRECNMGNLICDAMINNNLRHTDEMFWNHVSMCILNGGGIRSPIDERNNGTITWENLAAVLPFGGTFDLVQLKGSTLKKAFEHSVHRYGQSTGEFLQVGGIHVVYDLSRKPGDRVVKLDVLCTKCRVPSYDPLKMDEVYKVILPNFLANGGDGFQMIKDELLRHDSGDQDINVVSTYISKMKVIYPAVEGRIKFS
# B1: murine antibody 13D12 (antibody, V domains shown)
# VH: DVKLQESGPAMVKPSQSLSLTCTVTGYSITSGYDWHWIRLFPGNKLEWMGYISYSGYTDYSPSLKSRISITHDTSKNHFFLKLHSVTTEDTATYYCTRGDHSYAMDYWGQGTSVTVS
# VL: DIVMTQSHKFMSTSVGDRVSITCKASQAVGTAVAWYQQKPGQSPKLLIYWASSRHTGVPDRFTGSRSGTDFTLTISSVQSEDLADYFCQQYSSYPLTFGGGTNLEIK
# notes: Mouse monoclonal antibody purified from hybridoma supernatant; also called mouse monoclonal antibody 13D12
# Legend:
# [1] = target: T1, human CD73 on the cell surface (tumor …); assay: full-field cell scanning analyzer (Celigo), percent fluorescent cells, MDA-MB-231 cells endogenously expressing human CD73
# Method: (§1) Experimental method: 10,000 cells were plated on a flat-bottom 96-well plate with 100 μL DMEM+10% FBS/well, cultured overnight so that the cells adhered to the well, and the supernatant was discarded on the next day. Serial 3-fold dilutions of antibody for 8 points were performed by diluting ⅓ of the total volume (100 μL) in 200 μL DMEM. 100 μL of the diluted antibody was added to each well of the cell plate (the supernatants of fused clones or subclones were used for screening), 100 μL of DMEM was added to the corresponding negative control well, and incubation was performed at room temperature for 1 hour. After the supernatant was discarded, 100 μL of secondary antibody (DyLight488 goat anti-mouse IgG (Abcam, Cat. No. ab97015)) was added to each well at a concentration of 5 μg/mL (diluted in DMEM), and incubation was performed for 0.5 hours at room temperature. After staining, the supernatant was discarded, followed by washing once with PBS+2% FBS, then 100 μL of PBS+2% FBS was added to each well, and then reading was performed on analyzer. A full-field cell scanning analyzer (Nexcelom Company, model Celigo® Image Cytometer) was used to measure the reading of the experimental plate. […] The binding effect of the anti-CD73 antibody to the CD73-expressing cell line was determined according to the percentage. […]
# [2] = target: T1, human CD73 on the cell surface (tumor …); assay: full-field cell scanning analyzer (Celigo), percent fluorescent cells, BT549 cells endogenously expressing human CD73
# Method: as §1
# [3] = target: T1, human CD73 on the cell surface (tumor …); assay: full-field cell scanning analyzer (Celigo), percent fluorescent cells, H2030 cells endogenously expressing human CD73
# Method: as §1
binder,measurement,setting,value
B1,EC50,[1],0.9 µg/mL
same,EC50,[2],1.78 µg/mL
same,EC50,[3],0.46 µg/mL
